Key:
HeLa Kyoto [1] = test: thermal stability score vs G1/S (z-score of summed log2 fold changes over temperatures); higher = more thermally stable than in G1/S
HeLa Kyoto [2] = test: solubility change mitosis vs G1/S (difference of NP-40 vs SDS log2 ratios) (log2 ratio difference); higher = more soluble in mitosis
HeLa Kyoto [3] = test: melting temperature (median over replicates), in situ; higher = more thermally stable
HeLa Kyoto [4] = test: solubility in G1/S (NP-40 vs SDS abundance) (log2 ratio); higher = more soluble; details: cell cycle stage: G1/S
[5] = cell cycle stage: early G1 (4.5 h after nocodazole release)
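For melting temperature (median over replicates), in situ in this document: HeLa Kyoto cells synchronized by double thymidine or nocodazole block, proteins quantified by TMT10plex mass spectrometry, three independent biological replicates.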
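For solubility change mitosis vs G1/S (difference of NP-40 vs SDS log2 ratios) in this document: synchronized HeLa Kyoto cells (double thymidine block for G1/S, nocodazole release for mitosis), protein amounts in NP-40 versus SDS lysates quantified by mass spectrometry, three biological replicates.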
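For solubility in G1/S (NP-40 vs SDS abundance) in this document: HeLa Kyoto cells arrested at G1/S by double thymidine block, proteins quantified by TMT10plex mass spectrometry in mild NP-40 versus SDS extracts, three biological replicates.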
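For thermal stability score vs G1/S (z-score of summed log2 fold changes over temperatures) in this document: synchronized HeLa Kyoto cells, proteins quantified by TMT10plex mass spectrometry, three biological replicates, mitosis taken 0.5 h after nocodazole release, G1/S directly after double thymidine block.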

| Sequence | thermal stability score (HeLa Kyoto [1]; [5]) | thermal stability score (HeLa Kyoto [1]; cell cycle stage: mitosis) | solubility change mitosis (log2) (HeLa Kyoto [2]) | melting temperature (HeLa Kyoto [3]; cell cycle stage: G1/S) | melting temperature (HeLa Kyoto [3]; cell cycle stage: mitosis) | solubility in G1/S (log2) (HeLa Kyoto [4]) |
| --- | --- | --- | --- | --- | --- | --- |
| MGWVGGRRRDSASPPGRSRSAADDINPAPANMEGGGGSVAVAGLGARGSGAAAATVRELLQDGCYSDFLNEDFDVKTYTSQSIHQAVIAEQLAKLAQGISQLDRELHLQVVARHEDLLAQATGIESLEGVLQMMQTRIGALQGAVDRIKAKIVEPYNKIVARTAQLARLQVACDLLRRIIRILNLSKRLQGQLQGGSREITKAAQSLNELDYLSQGIDLSGIEVIENDLLFIARARLEVENQAKRLLEQGLETQNPTQVGTALQVFYNLGTLKDTITSVVDGYCATLEENINSALDIKVLTQPSQSAVRGGPGRSTMPTPGNTAALRASFWTNMEKLMDHIYAVCGQVQHLQKVLAKKRDPVSHICFIEEIVKDGQPEIFYTFWNSVTQALSSQFHMATNSSMFLKQAFEGEYPKLLRLYNDLWKRLQQYSQHIQGNFNASGTTDLYVDLQHMEDDAQDIFIPKKPDYDPEKALKDSLQPYEAAYLSKSLSRLFDPINLVFPPGGRNPPSSDELDGIIKTIASELNVAAVDTNLTLAVSKNVAKTIQLYSVKSEQLLSTQGDASQVIGPLTEGQRRNVAVVNSLYKLHQSVTKVVSSQSSFPLAAEQTIISALKAIHALMENAVQPLLTSVGDAIEAIIITMHQEDFSGSLSSSGKPDVPCSLYMKELQGFIARVMSDYFKHFECLDFVFDNTEAIAQRAVELFIRHASLIRPLGEGGKMRLAADFAQMELAVGPFCRRVSDLGKSYRMLRSFRPLLFQASEHVASSPALGDVIPFSIIIQFLFTRAPAELKSPFQRAEWSHTRFSQWLDDHPSEKDRLLLIRGALEAYVQSVRSREGKEFAPVYPIMVQLLQKAMSALQ [COG5] | 0.309 | 0.873 | -0.0443 | 48.3 °C | 48 °C | 0.00411 |
| MDQEPVGGVERGEAVAASGAAAAAAFGESAGQMSNERGFENVELGVIGKKKKVPRRVIHFVSGETMEEYSTDEDEVDGLEKKDVLPTVDPTKLTWGPYLWFYMLRAATSTLSVCDFLGEKIASVLGISTPKYQYAIDEYYRMKKEEEEEEEENRMSEEAEKQYQQNKLQTDSIVQTDQPETVISSSFVNVNFEMEGDSEVIMESKQNPVSVPP [FAM177A1] | 0.512 | -0.398 | -0.0492 | 54.5 °C | 56.5 °C | 0.0523 |
| MSSILPFTPPVVKRLLGWKKSAGGSGGAGGGEQNGQEEKWCEKAVKSLVKKLKKTGRLDELEKAITTQNCNTKCVTIPSTCSEIWGLSTPNTIDQWDTTGLYSFSEQTRSLDGRLQVSHRKGLPHVIYCRLWRWPDLHSHHELKAIENCEYAFNLKKDEVCVNPYHYQRVETPVLPPVLVPRHTEILTELPPLDDYTHSIPENTNFPAGIEPQSNYIPETPPPGYISEDGETSDQQLNQSMDTGSPAELSPTTLSPVNHSLDLQPVTYSEPAFWCSIAYYELNQRVGETFHASQPSLTVDGFTDPSNSERFCLGLLSNVNRNATVEMTRRHIGRGVRLYYIGGEVFAECLSDSAIFVQSPNCNQRYGWHPATVCKIPPGCNLKIFNNQEFAALLAQSVNQGFEAVYQLTRMCTIRMSFVKGWGAEYRRQTVTSTPCWIELHLNGPLQWLDKVLTQMGSPSVRCSSMS [SMAD2] | 0.527 | 1.37 | -0.177 | 50.5 °C | 49.9 °C | -0.0287 |
| MLLSVPLLLGLLGLAVAEPAVYFKEQFLDGDGWTSRWIESKHKSDFGKFVLSSGKFYGDEEKDKGLQTSQDARFYALSASFEPFSNKGQTLVVQFTVKHEQNIDCGGGYVKLFPNSLDQTDMHGDSEYNIMFGPDICGPGTKKVHVIFNYKGKNVLINKDIRCKDDEFTHLYTLIVRPDNTYEVKIDNSQVESGSLEDDWDFLPPKKIKDPDASKPEDWDERAKIDDPTDSKPEDWDKPEHIPDPDAKKPEDWDEEMDGEWEPPVIQNPEYKGEWKPRQIDNPDYKGTWIHPEIDNPEYSPDPSIYAYDNFGVLGLDLWQVKSGTIFDNFLITNDEAYAEEFGNETWGVTKAAEKQMKDKQDEEQRLKEEEEDKKRKEEEEAEDKEDDEDKDEDEEDEEDKEEDEEEDVPGQAKDEL [CALR] | 3.64 | 3.96 | 0.0133 | 54.6 °C | 54.9 °C | 0.0117 |
| MGRTVVVLGGGISGLAASYHLSRAPCPPKVVLVESSERLGGWIRSVRGPNGAIFELGPRGIRPAGALGARTLLLVSELGLDSEVLPVRGDHPAAQNRFLYVGGALHALPTGLRGLLRPSPPFSKPLFWAGLRELTKPRGKEPDETVHSFAQRRLGPEVASLAMDSLCRGVFAGNSRELSIRSCFPSLFQAEQTHRSILLGLLLGAGRTPQPDSALIRQALAERWSQWSLRGGLEMLPQALETHLTSRGVSVLRGQPVCGLSLQAEGRWKVSLRDSSLEADHVISAIPASVLSELLPAEAAPLARALSAITAVSVAVVNLQYQGAHLPVQGFGHLVPSSEDPGVLGIVYDSVAFPEQDGSPPGLRVTVMLGGSWLQTLEASGCVLSQELFQQRAQEAAATQLGLKEMPSHCLVHLHKNCIPQYTLGHWQKLESARQFLTAHRLPLTLAGASYEGVAVNDCIESGRQAAVSVLGTEPNS [PPOX] | 0.0829 | -0.0946 | -0.0988 | 53.3 °C | 54 °C | 0.0337 |
| MRGEQGAAGARVLQFTNCRILRGGKLLREDLWVRGGRILDPEKLFFEERRVADERRDCGGRILAPGFIDVQINGGFGVDFSQATEDVGSGVALVARRILSHGVTSFCPTLVTSPPEVYHKVVPQIPVKSGGPHGAGVLGLHLEGPFISREKRGAHPEAHLRSFEADAFQDLLATYGPLDNVRIVTLAPELGRSHEVIRALTARGICVSLGHSVADLRAAEDAVWSGATFITHLFNAMLPFHHRDPGIVGLLTSDRLPAGRCIFYGMIADGTHTNPAALRIAHRAHPQGLVLVTDAIPALGLGNGRHTLGQQEVEVDGLTAYVAGTKTLSGSIAPMDVCVRHFLQATGCSMESALEAASLHPAQLLGLEKSKGTLDFGADADFVVLDDSLHVQATYISGELVWQADAARQ [AMDHD2] | -1.01 | -2.12 | -0.0923 | 55.1 °C | 54.3 °C | -0.0483 |
| MTDNIPLQPVRQKKRMDSRPRAGCCEWLRCCGGGEARPRTVWLGHPEKRDQRYPRNVINNQKYNFFTFLPGVLFNQFKYFFNLYFLLLACSQFVPEMRLGALYTYWVPLGFVLAVTVIREAVEEIRCYVRDKEVNSQVYSRLTARGTVKVKSSNIQVGDLIIVEKNQRVPADMIFLRTSEKNGSCFLRTDQLDGETDWKLRLPVACTQRLPTAADLLQIRSYVYAEEPNIDIHNFVGTFTREDSDPPISESLSIENTLWAGTVVASGTVVGVVLYTGRELRSVMNTSNPRSKIGLFDLEVNCLTKILFGALVVVSLVMVALQHFAGRWYLQIIRFLLLFSNIIPISLRVNLDMGKIVYSWVIRRDSKIPGTVVRSSTIPEQLGRISYLLTDKTGTLTQNEMIFKRLHLGTVAYGLDSMDEVQSHIFSIYTQQSQDPPAQKGPTLTTKVRRTMSSRVHEAVKAIALCHNVTPVYESNGVTDQAEAEKQYEDSCRVYQASSPDEVALVQWTESVGLTLVGRDQSSMQLRTPGDQILNFTILQIFPFTYESKRMGIIVRDESTGEITFYMKGADVVMAGIVQYNDWLEEECGNMAREGLRVLVVAKKSLAEEQYQDFEARYVQAKLSVHDRSLKVATVIESLEMEMELLCLTGVEDQLQADVRPTLETLRNAGIKVWMLTGDKLETATCTAKNAHLVTRNQDIHVFRLVTNRGEAHLELNAFRRKHDCALVISGDSLEVCLKYYEYEFMELACQCPAVVCCRCAPTQKAQIVRLLQERTGKLTCAVGDGGNDVSMIQESDCGVGVEGKEGKQASLAADFSITQFKHLGRLLMVHGRNSYKRSAALSQFVIHRSLCISTMQAVFSSVFYFASVPLYQGFLIIGYSTIYTMFPVFSLVLDKDVKSEVAMLYPELYKDLLKGRPLSYKTFLIWVLISIYQGSTIMYGALLLFESEFVHIVAISFTSLILTELLMVALTIQTWHWLMTVAELLSLACYIASLVFLHEFIDVYFIATLSFLWKVSVITLVSCLPLYVLKYLRRRFSPPSYSKLTS [ATP9A] | -4.08 | -4.01 | 0.0184 | 57.4 °C | 58.4 °C | -0.6 |

— the supplement of paper PMC5998384
